B1: Splicing factor 3A subunit 1 (Homo sapiens), Q15459 (parent)
chain: MPAGPVQAVPPPPPVPTEPKQPTEEEASSKEDSAPSKPVVGIIYPPPEVRNIVDKTASFVARNGPEFEARIRQNEINNPKFNFLNPNDPYHAYYRHKVSEFKEGKAQEPSAAIPKVMQQQQQTTQQQLPQKVQAQVIQETIVPKEPPPEFEFIADPPSISAFDLDVVKLTAQFVARNGRQFLTQLMQKEQRNYQFDFLRPQHSLFNYFTKLVEQYTKILIPPKGLFSKLKKEAENPREVLDQVCYRVEWAKFQERERKKEEEEKEKERVAYAQIDWHDFVVVETVDFQPNEQGNFPPPTTPEELGARILIQERYEKFGESEEVEMEVESDEEDDKQEKAEEPPSQLDQDTQVQDMDEGSDDEEEGQKVPPPPETPMPPPLPPTPDQVIVRKDYDPKASKPLPPAPAPDEYLVSPITGEKIPASKMQEHMRIGLLDPRWLEQRDRSIREKQSDDEVYAPGLDIESSLKQLAERRTDIFGVEETAIGKKIGEEEIQKPEEKVTWDGHSGSMARTQQAAQANITLQEQIEAIHKAKGLVPEDDTKEKIGPSKPNEIPQQPPPPSSATNIPSSAPPITSVPRPPTMPPPVRTTVVSAVPVMPRPPMASVVRLPPGSVIAPMPPIIHAPRINVVPMPPSAPPIMAPRPPPMIVPTAFVPAPPVAPVPAPAPMPPVHPPPPMEDEPTSKKLKTEDSLMPEEEFLRRNKGPVSIKVQVPNMQDKTEWKLNGQVLVFTLPLTDQVSVIKVKIHEATGMPAGKQKLQYEGIFIKDSNSLAYYNMANGAVIHLALKERGGRKK
partner: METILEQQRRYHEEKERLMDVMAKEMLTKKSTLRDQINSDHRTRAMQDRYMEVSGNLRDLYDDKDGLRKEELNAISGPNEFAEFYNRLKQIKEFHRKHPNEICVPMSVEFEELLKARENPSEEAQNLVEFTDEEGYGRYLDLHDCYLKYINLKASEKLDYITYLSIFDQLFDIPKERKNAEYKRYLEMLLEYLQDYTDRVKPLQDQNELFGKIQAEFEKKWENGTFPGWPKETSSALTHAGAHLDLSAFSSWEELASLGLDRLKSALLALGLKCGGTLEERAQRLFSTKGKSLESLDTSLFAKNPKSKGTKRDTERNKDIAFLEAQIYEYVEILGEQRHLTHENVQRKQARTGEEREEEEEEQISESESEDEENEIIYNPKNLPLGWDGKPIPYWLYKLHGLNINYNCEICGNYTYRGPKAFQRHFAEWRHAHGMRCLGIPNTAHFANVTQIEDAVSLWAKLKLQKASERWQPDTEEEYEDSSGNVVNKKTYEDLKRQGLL

Variants of: B1
Conditions: with sf3a3_human SF3A3, Q12874

effect of a mutation on the interaction | Variant
increasing interaction | K55L

Variants of: B1
Conditions: with sf3a3_human SF3A3, Q12874
Remark: another data set of the same source

effect of a mutation on the interaction | Variant
disrupting interaction | L169K
